Source: patent publication EP4626929A2 (dated 2025)

Target: BTLA on human primary B cells (human, UniProt Q7Z6A9 31-289)
Experiment: cell-based or functional assay

B1: BTLA agonist antibody M10825 (antibody, human IgG2, kappa)
heavy: QITLKESGPTLVKPTQTLTLTCTFSGFSLSTSGVGVGWIRQPPGKALEWLAQEFWTGDKRYSPSLKSRLTITKDTSKNQVVLTMTNMDPVDTATYYCTHKLGMNYFDYWGQGTLVTVSSASTKGPSVFPLAPCSRSTSESTAALGCLVKDYFPEPVTVSWNSGALTSGVHTFPAVLQSSGLYSLSSVVTVPSSNFGTQTYTCNVDHKPSNTKVDKTVERKCCVECPPCPAPPVAGPSVFLFPPKPKDTLMISRTPEVTCVVVDVSHEDPEVQFNWYVDGVEVHNAKTKPREEQFNSTFRVVSVLTVVHQDWLNGKEYKCKVSNKGLPAPIEKTISKTKGQPREPQVYTLPPSREEMTKNQVSLTCLVKGFYPSDIAVEWESNGQPENNYKTTPPMLDSDGSFFLYSKLTVDKSRWQQGNVFSCSVMHEALHNHYTQKSLSLSPG
light: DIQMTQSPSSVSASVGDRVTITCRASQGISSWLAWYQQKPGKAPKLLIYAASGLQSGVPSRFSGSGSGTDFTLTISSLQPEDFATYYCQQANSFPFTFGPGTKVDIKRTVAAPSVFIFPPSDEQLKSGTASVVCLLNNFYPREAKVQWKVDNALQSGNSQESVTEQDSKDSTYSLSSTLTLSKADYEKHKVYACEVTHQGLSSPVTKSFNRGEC
With B1 the “IC50 of inhibition of human primary B cell proliferation” value was 10.5 nM.
